Sequences and labels used below:
B1: CD3.9 scFv (parental anti-CD3 scFv) (scFv)
scFv: ELVVTQEPSLTVSPGGTVTLTCRSSTGAVTTSNYANWVQQKPGQAPRGLIGGTNKRAPGTPARFSGSLLGGKAALTLSGVQPEDEAEYYCALWYSNLWVFGGGTKLTVLGATPPETGAETESPGETTGGSAESEPPGEGEVQLLESGGGLVQPGGSLKLSCAASGFTFNTYAMNWVRQAPGKGLEWVARIRSKYNNYATYYADSVKDRFTISRDDSKNTAYLQMNNLKTEDTAVYYCVRHGNFGNSYVSWFAYWGQGTLVTVSS
notes: VL-linker-VH scFv; also called hCD3.9; aCD3.9
B2: CD3.23 scFv (scFv)
scFv: ELVVTQEPSLTVSPGGTVTLTCRSSNGAVTSSNYANWVQQKPGQAPRGLIGGTNKRAPGTPARFSGSLLGGKAALTLSGVQPEDEAVYYCALWYPNLWVFGGGTKLTVLGATPPETGAETESPGETTGGSAESEPPGEGEVQLLESGGGIVQPGGSLKLSCAASGFTFNTYAMNWVRQAPGKGLEWVARIRSKYNNYATYYADSVKDRFTISRDDSKNTVYLQMNNLKTEDTAVYYCVRHENFGNSYVSWFAHWGQGTLVTVSS
notes: VL-linker-VH scFv; also called hCD3.23; aCD3.23
B3: CD3.25 scFv (scFv)
scFv: ELVVTQEPSHTVSPGGTVTLTCRSSTGAVTSSNYANWVQQKPGQAPRGLIGGTIKRAPGTPARFSGSLLGGKAALTLSGVQPEDEAEYYCALWYPNLWVFGGGTKLTVLGATPPETGAETESPGETTGGSAESEPPGEGEVQLLESGGGIVQPGGSLKLSCAASGFTFNTYAMNWVRQAPGKGLEWVARIRSKYNNYATYYADSVKDRFTISRDDSKNTVYLQMNNLKTEDTAVYYCVRHENFGNSYVSWFAHWGQGTLVTVSS
notes: VL-linker-VH scFv
B4: CD3.24 scFv (scFv)
scFv: ELVVTQEPSLTVSPGGTVTLTCRSSNGEVTTSNYANWVQQKPGQAPRGLIGGTIKRAPGTPARFSGSLLGGKAALTLSGVQPEDEAVYYCALWYPNLWVFGGGTKLTVLGATPPETGAETESPGETTGGSAESEPPGEGEVQLLESGGGIVQPGGSLKLSCAASGFTFNTYAMNWVRQAPGKGLEWVARIRSKYNNYATYYADSVKDRFTISRDDSKNTVYLQMNNLKTEDTAVYYCVRHENFGNSYVSWFAHWGQGTLVTVSS
notes: VL-linker-VH scFv
B5: CD3.26 scFv (scFv)
scFv: ELVVTQEPSHTVSPGGTVTLTCRSSTGEVTTSNYANWVQQKPGQAPRGLIGGTIKRAPGTPARFSGSLLGGKAALTLSGVQPEDEAEYYCALWYPNLWVFGGGTKLTVLGATPPETGAETESPGETTGGSAESEPPGEGEVQLLESGGGIVQPGGSLKLSCAASGFTFNTYAMNWVRQAPGKGLEWVARIRSKYNNYATYYADSVKDRFTISRDDSKNTVYLQMNNLKTEDTAVYYCVRHENFGNSYVSWFAHWGQGTLVTVSS
notes: VL-linker-VH scFv

We go through five molecules from patent US20230121775A1 (AMUNIX PHARMACEUTICALS, published 2023).

One may read the Kd as a measure of binding affinity in units of concentration. A lower Kd goes with tighter binding.

Biotinylated CD3(Eµ antigen (Creative Biomart), sequence (P07766 23-126): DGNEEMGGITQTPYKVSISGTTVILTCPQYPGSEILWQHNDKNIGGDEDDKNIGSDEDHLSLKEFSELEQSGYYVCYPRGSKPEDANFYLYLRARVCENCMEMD

This experiment has as its target Biotinylated CD3(Eµ antigen (Creative Biomart) (UniProt P07766 23-126, biotinylated (site not stated))). As to the kind of experiment: BLI (ForteBio BLItz), biotinylated CD3 antigen on streptavidin biosensor, scFv in solution.
Consider B1, for which binding was characterised by a dissociation constant (Kd) of 75 nM.

With B2, binding was characterised by a dissociation constant (Kd) of 175 nM. Against the preceding molecule, the Kd is about 2.3-fold higher.

In turn, B3 displayed a Kd of 215 nM. The Kd values of the last two molecules are within 1.5-fold of each other.

The molecule B4 registered a Kd of 296 nM.

For B5, the Kd was determined as 221 nM.
